Where a chain is given by its changes, count along the chain named. Values belong to the binder of their own block, whether it stands above or below them.
Key:
muTNFα = target: T1, muTNFα (mouse, UniProt P06804 80-235); experiment: cell-based or functional assay
T1 sequence (looked up): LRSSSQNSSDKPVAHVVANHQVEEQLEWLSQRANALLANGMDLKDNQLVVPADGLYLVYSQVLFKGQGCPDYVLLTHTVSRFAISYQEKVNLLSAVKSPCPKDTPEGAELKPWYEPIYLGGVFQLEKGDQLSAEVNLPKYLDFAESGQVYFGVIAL

huTWEAK = target: T2, huTWEAK (human, UniProt O43508 93-249, limits assumed); experiment: cell-based or functional assay
T2 sequence (looked up): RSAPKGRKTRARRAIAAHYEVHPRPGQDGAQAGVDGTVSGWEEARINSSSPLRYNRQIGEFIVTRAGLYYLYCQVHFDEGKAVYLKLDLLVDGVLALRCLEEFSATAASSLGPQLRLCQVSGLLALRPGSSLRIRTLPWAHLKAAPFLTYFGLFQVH

[1] = target: T3, Recombinant Human TNF-α/TNFSF1A (human, UniProt P01375 77-233); experiment: SPR (Biacore), DVD-Ig captured on goat anti-human IgG Fc chip, antigen in solution; N-terminal TNF domain
Procedure: (§1) Binding of antibodies or DVD-Ig to a target antigen (for example, a purified recombinant target antigen) was determined by surface plasmon resonance-based measurements with a Biacore® T-100, T-200, or 3000 instrument (GE, New Jersey) using running HBS-EP (10 mM HEPES [pH 7.4], 150 mM NaCl, 3 mM EDTA, and 0.005% surfactant P20) at 25° C. All chemicals were obtained from GE (New Jersey) or otherwise from a different source as described in the text. For example, approximately 5000 RU of goat anti-human IgG, (Fcγ), fragment specific polyclonal antibody (Pierce Biotechnology Inc, Rockford, Ill.) diluted in 10 mM sodium acetate (pH 4.5) was directly immobilized across a CM5 research grade biosensor chip using a standard amine coupling kit according to manufacturer's instructions and procedures at 25 Unreacted moieties on the biosensor surface were blocked with ethanolamine Modified carboxymethyl dextran surface in flowcell 2,3, and 4 was used as a reaction surface. Modified carboxymethyl dextran surface with goat anti-human IgG in flow cell 1 was used as the reference surface. For kinetic analysis, rate equations derived from the 1:1 Langmuir binding model were fitted simultaneously to association and dissociation phases of all eight injections (using global fit analysis) with the use of Biaevaluation 4.0.1 software. Purified antibodies or DVD-Ig were diluted in HEPES-buffered saline for capture across goat anti-human IgG specific reaction surfaces. Antibodies or DVD-Ig to be captured as a ligand (1 μg/ml) were injected over reaction matrices at a flow rate of 50 μl/min. The association and dissociation rate constants, kₒₙ (M⁻¹s⁻¹) and koff (s⁻¹) were determined under a continuous flow rate of 500 min. Rate constants were derived by making kinetic binding measurements at different antigen concentrations ranging from 2-200 nM. Anti-TWEAK antibodies and DVD-Igs were evaluated by binding of the antibodies/DVD-Igs to the captured FLAG tagged TWEAK on a mouse anti FLAG biosensor chip. The concentrations of the DVD-Igs/Antibodies tested were between 100-0.01 nM.
(§2) The equilibrium dissociation constant (M) of the reaction between antibodies or DVD-Igs and the target antigen was then calculated from the kinetic rate constants by the following formula: KD=koff/kₒₙ. Binding was recorded as a function of time and kinetic rate constants are calculated.

[2] = target: T4, FLAG tagged TWEAK (Recombinant Human TWEAK) (human, UniProt O43508 106-249, limits assumed); experiment: SPR (Biacore), FLAG tagged TWEAK captured on mouse anti-FLAG chip, DVD-Ig in solution; C-terminal TWEAK (seq. 2) domain
T4 construct: Captured on a mouse anti-FLAG biosensor chip in the Biacore assay of the anti-TWEAK antibodies and DVD-Igs; also called TWEAK/TNSF12; not shown: FLAG tag
T4 sequence (looked up): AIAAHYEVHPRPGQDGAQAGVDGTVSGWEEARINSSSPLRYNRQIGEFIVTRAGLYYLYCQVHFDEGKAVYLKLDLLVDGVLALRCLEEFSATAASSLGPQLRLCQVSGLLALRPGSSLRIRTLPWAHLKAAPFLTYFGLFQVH
Procedure: as §1, with “Antibodies or DVD-Ig to be captured as a ligand (1 μg/ml) were injected over reaction matrices at a flow rate of 50 μl/min.” left out, “Rate constants were derived by making kinetic binding measurements at different antigen concentrations ranging from 2-200 nM.” left out, “The concentrations of the DVD-Igs/Antibodies tested were between 100-0.01 nM.” left out
as §2

[3] = target: T4, FLAG tagged TWEAK (Recombinant Human …); experiment: SPR (Biacore), FLAG tagged TWEAK captured on mouse anti-FLAG chip, antibody in solution
Procedure: as §1, §2

[4] = target: T3, Recombinant Human TNF-α/TNFSF1A; experiment: SPR (Biacore), antibody captured on goat anti-human IgG Fc chip, antigen in solution
Procedure: as §1, with “Antibodies or DVD-Ig to be captured as a ligand (1 μg/ml) were injected over reaction matrices at a flow rate of 50 μl/min.” left out, “Rate constants were derived by making kinetic binding measurements at different antigen concentrations ranging from 2-200 nM.” left out, “The concentrations of the DVD-Igs/Antibodies tested were between 100-0.01 nM.” left out
as §2

[5] = target: T3, Recombinant Human TNF-α/TNFSF1A; experiment: SPR (Biacore), antibody captured on goat anti-human IgG Fc chip, antigen in solution (row printed a second time)
Procedure: Binding of antibodies or DVD-Ig to a target antigen (for example, a purified recombinant target antigen) was determined by surface plasmon resonance-based measurements with a Biacore® T-100, T-200, or 3000 instrument (GE, New Jersey) using running HBS-EP (10 mM HEPES [pH 7.4], 150 mM NaCl, 3 mM EDTA, and 0.005% surfactant P20) at 25° C. All chemicals were obtained from GE (New Jersey) or otherwise from a different source as described in the text. […] The association and dissociation rate constants, kₒₙ (M⁻¹s⁻¹) and koff (s⁻¹) were determined under a continuous flow rate of 500 min. […] Anti-TWEAK antibodies and DVD-Igs were evaluated by binding of the antibodies/DVD-Igs to the captured FLAG tagged TWEAK on a mouse anti FLAG biosensor chip. […]
as §2

T3 sequence (P01375 77-233 limits assumed): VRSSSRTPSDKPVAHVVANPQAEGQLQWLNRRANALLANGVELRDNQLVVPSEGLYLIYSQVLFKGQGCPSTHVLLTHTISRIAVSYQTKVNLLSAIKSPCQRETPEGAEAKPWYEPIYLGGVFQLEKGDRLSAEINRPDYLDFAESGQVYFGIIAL

C-terminal VD TWEAK Neutralization Assay EC50 nM (IL-8 in supernatant of A375 cells) (huTWEAK): 0.238 nM
B1: DVD1132 (bispecific antibody, human IgG1, kappa)
heavy: not shown
light: QIVLSQSPAILSASPGEKVTMTCRASSSVSYMHWFQQKPGSSPKPWIYATSNLASGVPARFSGSGSGTSYSLTISRVEAEDAATYYCQQWSSSPLTFGAGTKLELKRTVAAPDVVMTQSPLSLPVTPGEPASISCRSSQSLVSSKGNTYLHWYLQKPGQSPQFLIYKVSNRFSGVPDRFSGSGSGTDFTLKISRVEAEDVGVYFCSQSTHFPRTFGGGTKVEIKRTVAAPSVFIFPPSDEQLKSGTASVVCLLNNFYPREAKVQWKVDNALQSGNSQESVTEQDSKDSTYSLSSTLTLSKADYEKHKVYACEVTHQGLSSPVTKSFNRGEC
N-terminal VD TNFα Neutralization Assay EC50 nM (L929 cell viability, WST-1) (muTNFα): 0.196 nM

C-terminal VD TWEAK Neutralization Assay EC50 nM (IL-8 in supernatant of A375 cells) (huTWEAK): 4.34 nM
B2: DVD1135 (bispecific antibody, human IgG1, kappa)
heavy: not shown
light: B1 light with P124S, T126S, P127L, E129D, P130Q, Q162K, E196A, V200L, K220T, V221L
N-terminal VD TNFα Neutralization Assay EC50 nM (L929 cell viability, WST-1) (muTNFα): 1.95 nM

Kd [1]: 0.062 nM
koff [1]: 0.00082 s⁻¹
kon [1]: 1.3e+07 M⁻¹ s⁻¹
Kd [2]: < 0.0083 nM
koff [2]: < 1e-06 s⁻¹
kon [2]: 120000 M⁻¹ s⁻¹
C-terminal VD TWEAK Neutralization Assay EC50 nM (IL-8 in supernatant of A375 cells) (huTWEAK): 0.136 nM
B3: DVD1140 (bispecific antibody, human IgG1, kappa)
heavy: not shown
light: B1 light with P124S, T126S, P127L, E129D, P130Q, Q162K, E196A, V200L, K220T, V221L
notes: also called DVD1140H/DVD1140L
N-terminal VD TNFα Neutralization Assay EC50 nM (L929 cell viability, WST-1) (muTNFα): 1.06 nM

Kd [1]: 0.059 nM
koff [1]: 0.00058 s⁻¹
kon [1]: 9.9e+06 M⁻¹ s⁻¹
B4: DVD1127 (bispecific antibody, human IgG1, kappa)
heavy: not shown
light: B1 light
notes: also called DVD1127H/DVD1127L
N-terminal VD TNFα Neutralization Assay EC50 nM (L929 cell viability, WST-1) (muTNFα): 0.703 nM

C-terminal VD TWEAK Neutralization Assay EC50 nM (IL-8 in supernatant of A375 cells) (huTWEAK): 0.123 nM
B5: DVD1131 (bispecific antibody, human IgG1, kappa)
heavy: not shown
light: QIVLSQSPAILSASPGEKVTMTCRASSSVSYMHWFQQKPGSSPKPWIYATSNLASGVPARFSGSGSGTSYSLTISRVEAEDAATYYCQQWSSSPLTFGAGTKLELKRTVAAPSVFIFPPDVVMTQSPLSLPVTPGEPASISCRSSQSLVSSKGNTYLHWYLQKPGQSPQFLIYKVSNRFSGVPDRFSGSGSGTDFTLKISRVEAEDVGVYFCSQSTHFPRTFGGGTKVEIKRTVAAPSVFIFPPSDEQLKSGTASVVCLLNNFYPREAKVQWKVDNALQSGNSQESVTEQDSKDSTYSLSSTLTLSKADYEKHKVYACEVTHQGLSSPVTKSFNRGEC

TWEAK Neutralization Assay EC50 nM (IL-8 in supernatant of A375 cells) (huTWEAK): 0.396 nM
Kd [3]: < 0.00025 nM
koff [3]: 2.5e-06 s⁻¹
kon [3]: > 1e+07 M⁻¹ s⁻¹
B6: AB211 (antibody, human IgG1, kappa, V domains shown)
VH: EVQLVESGGGLVQPGGSLRLSCAASGFTFSRYAMSWVRQAPGKGLEWVAEISSGGSYPYYPDTVTGRFTISRDNAKNSLYLQMNSLRAEDTAVYYCARVLYYDYDGDRIEVMDYWGQGTLVTVSS
VL: DVVMTQSPLSLPVTPGEPASISCRSSQSLVSSKGNTYLHWYLQKPGQSPQFLIYKVSNRFSGVPDRFSGSGSGTDFTLKISRVEAEDVGVYFCSQSTHFPRTFGGGTKVEIKR

Kd [3]: 0.0018 nM
koff [3]: 2.6e-05 s⁻¹
kon [3]: 1.1e+07 M⁻¹ s⁻¹
B7: AB212 (antibody, human IgG1, kappa, V domains shown)
VH: EVQLVESGGGLVRPGGSLKLFCAASGFTFSRYAMSWVRQSPEKRLEWVAEISSGGSYPYYPDTVTGRFTISRDNAKNTLYLEMSSLKSEDTAMYYCARVLYYDYDGDRIEVMDYWGQGTAVIVSS
VL: B6 VL with P12S, T14S, P15L, E17D, P18Q, Q50K, E84A, V88L, K108T, V109L

N-terminal VD TWEAK Neutralization Assay EC50 nM (IL-8 in supernatant of A375 cells) (huTWEAK): 0.462 nM
B8: DVD1128 (bispecific antibody, human IgG1, kappa)
heavy: not shown
light: DVVMTQSPLSLPVTPGEPASISCRSSQSLVSSKGNTYLHWYLQKPGQSPQFLIYKVSNRFSGVPDRFSGSGSGTDFTLKISRVEAEDVGVYFCSQSTHFPRTFGGGTKVEIKRTVAAPQIVLSQSPAILSASPGEKVTMTCRASSSVSYMHWFQQKPGSSPKPWIYATSNLASGVPARFSGSGSGTSYSLTISRVEAEDAATYYCQQWSSSPLTFGAGTKLELKRTVAAPSVFIFPPSDEQLKSGTASVVCLLNNFYPREAKVQWKVDNALQSGNSQESVTEQDSKDSTYSLSSTLTLSKADYEKHKVYACEVTHQGLSSPVTKSFNRGEC

Kd [4]: 0.073 nM
koff [4]: 0.00041 s⁻¹
kon [4]: 5.6e+06 M⁻¹ s⁻¹
Kd [5]: 0.073 nM
koff [5]: 0.00041 s⁻¹
B9: AB210 (antibody, human IgG1, kappa, V domains shown)
VH: EFQLQQSGPELVKPGASVRISCKASGYSFTDYNMNWVKQSNGKSLEWVGVINPNYGSSTYNQKFKGKATLTVDQSSSTAYMQLNSLTSEDSAVYYCARKWGQLGRGFFDVWGTGTTVTVSS
VL: QIVLSQSPAILSASPGEKVTMTCRASSSVSYMHWFQQKPGSSPKPWIYATSNLASGVPARFSGSGSGTSYSLTISRVEAEDAATYYCQQWSSSPLTFGAGTKLELKR
notes: also called TNF parent antibody; muTNFα Parent Antibody
TNFα Neutralization Assay EC50 nM (L929 cell viability, WST-1) (muTNFα): 0.717 nM

Source: patent US20110318349A1 (AbbVie / Abbott, published 2011)
